Results as given in patent US12534534 (F STAR BETA, dated 2026).
Positions count from the first letter of the chain named. Names may count otherwise. One block for each binder: values may come before it.

How the values were obtained:
[1] = target: T1, cyno CD137 on DO11.10-cCD137 cells (cynomolgus, UniProt Q07011 24-255 (human entry)); experiment: cell-based or functional assay
T1 chain: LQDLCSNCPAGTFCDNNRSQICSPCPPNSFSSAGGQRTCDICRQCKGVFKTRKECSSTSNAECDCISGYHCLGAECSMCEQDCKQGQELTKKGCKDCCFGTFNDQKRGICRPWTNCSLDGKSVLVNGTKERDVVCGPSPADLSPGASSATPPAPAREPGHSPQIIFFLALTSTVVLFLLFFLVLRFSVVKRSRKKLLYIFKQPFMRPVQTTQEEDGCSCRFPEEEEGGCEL

hCD137-mFc-Avi [2] = target: T2, hCD137-mFc-Avi (human, UniProt Q07011 24-186); experiment: cell-based, 100 nM hCD137-mFc-Avi with 200 nM antibody, competitor human CD137L on DO11.10 cells, GMFI normalised to G1/11D4 = 0 and G1/MOR7480.1 = 100; mean of n=2
T2 construct: dimer; also called human CD137-mFc-Avi; human CD137-mFc
Description: The cells were washed once in PBS and 100 μl/well of secondary antibody (anti-mouse Fc-488 antibody, Jackson Immuno Research, 115-546-008) diluted 1:1000 in PBS containing 2% BSA was then added and incubated for 30 mins at 4° C. in the dark. The cells were washed once with PBS and resuspended in 100 μl of PBS containing DAPI (Biotium, 40043) at 1 μg/ml. The cells were analysed using a Canto II flow cytometer (BD Bioscience). Dead cells were excluded and the fluorescence in the FITC channel (488 nm/530/30) was measured. […] The data was analysed using a one-way ANOVA test and Tukey's multiple comparisons test using GraphPad Prism.

[3] = target: human CD137 on DO11.10-hCD137 cells (human, UniProt Q07011 24-255); experiment: cell-based or functional assay
hCD137-mFc-Avi [4] = target: T2, hCD137-mFc-Avi; experiment: SPR (Biacore 3000), against the positive control G1/MOR7480.1
Description: (§1) Briefly, 25 µg/ml anti-human IgG (Fc) antibody (GE Healthcare, Human Antibody Capture Kit, BR100839) was coated on flow cells 1, 2, 3 and 4 of a Biacore sensor chip CM5 (GE Healthcare, BR100012) for 3 minutes at 5 µl/min, achieving a final response of approximately 4300 RU. The mAb² clones, diluted in HBS-EP buffer (GE Healthcare, BR100188) at 0.5 µg/ml, were injected individually on flows cell 2, 3 and 4 at 30 µl/min to achieve a response of approximately 80 RU. […] Regeneration was achieved by injecting 3 M magnesium chloride (GE Healthcare, Human Antibody Capture Kit, BR100839) for 30 seconds at a rate of 30 µl/min. […] These slightly less stringent conditions were used to assess whether this molecule could bind to cyno CD137-mFc. Subtracted data (flow cell 2-flow cell 1, flow cell 3-flow cell 1, or flow cell 4-flow cell 1) were analysed using BIAevaluation 3.2 Software (GE Healthcare) to identify binding using the model 1:1 binding with mass transfer, with refractive index (RI) constant 0.

cCD137-mFc-Avi = target: T3, cCD137-mFc-Avi (cynomolgus, Homodimer through the mouse Fc (one chain given). In the biotinylated version one biotin sits on the Avi-tag lysine of each monomer.); experiment: SPR (Biacore 3000), mAb^2 captured by anti-human Fc, dimeric CD137-mFc as analyte, 1:1 model with mass transfer
T3 construct: dimer; biotinylated version used on streptavidin plates; also called cyno CD137-mFc-Avi; cyno CD137-mFc
T3 chain: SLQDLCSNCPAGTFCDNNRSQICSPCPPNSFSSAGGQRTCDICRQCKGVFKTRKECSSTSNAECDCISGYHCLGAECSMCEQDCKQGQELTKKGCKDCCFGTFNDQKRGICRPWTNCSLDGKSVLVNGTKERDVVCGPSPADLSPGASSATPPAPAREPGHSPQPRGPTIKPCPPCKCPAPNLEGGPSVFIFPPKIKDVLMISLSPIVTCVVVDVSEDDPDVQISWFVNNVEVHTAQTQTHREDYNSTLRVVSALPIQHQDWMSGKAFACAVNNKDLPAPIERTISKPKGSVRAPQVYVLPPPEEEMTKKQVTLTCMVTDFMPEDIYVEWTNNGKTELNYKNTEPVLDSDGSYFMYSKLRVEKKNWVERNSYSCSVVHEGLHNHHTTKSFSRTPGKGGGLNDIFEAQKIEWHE
Description: as §1

hCD137-mFc-Avi [5] = target: T2, hCD137-mFc-Avi; experiment: as above
Description: as §1

EC50 (nM), mIL-2 release, DO11.10-cCD137 T cell assay, crosslinked (mean of n = 2) [1]: 5 nM
Emax (mIL-2 pg/ml), DO11.10-cCD137 T cell assay, crosslinked [1]: 49400 pg/mL
% CD137 ligand blocking activity (hCD137-mFc-Avi [2]): 65%
DO11.10-hCD137 T cell activation assay EC50 (nM), crosslinked [3]: 4.8 nM
fold higher binding affinity than G1/MOR7480.1 (hCD137-mFc-Avi [4]): ~3 fold
Kd (cCD137-mFc-Avi): 0.22 nM
Kd (hCD137-mFc-Avi [5]): 0.19 nM
B1: FS20-22-49AA/FS30-10-3 (bispecific antibody, human IgG1, kappa, L234A L235A, V domains shown)
VH: EVQLLESGGGLVQPGGSLRLSCAASGFTFSSYDMSWVRQAPGKGLEWVSDIDPTGSKTDYADSVKGRFTISRDNSKNTLYLQMNSLRAEDTAVYYCARDLNVYGFDYWGQGTLVTVSS
VL: EIVLTQSPGTLSLSPGERATLSCRASQSVSSSYLAWYQQKPGQAPRLLIYGASSRATGIPDRFSGSGSGTDFTLTISRLEPEDFAVYYCQQSYSYPVTFGQGTKVEIKR
notes: M97 (Kabat) to N against FS30-10; also called FS30-10-3 in mAb^2 format

EC50 (nM), mIL-2 release, DO11.10-cCD137 T cell assay, crosslinked (mean of n = 2) [1]: 5.8 nM
Emax (mIL-2 pg/ml), DO11.10-cCD137 T cell assay, crosslinked [1]: 46900 pg/mL
% CD137 ligand blocking activity (hCD137-mFc-Avi [2]): 46%
DO11.10-hCD137 T cell activation assay EC50 (nM), crosslinked [3]: 4.5 nM
Kd (cCD137-mFc-Avi): 4.63 nM
Kd (hCD137-mFc-Avi [5]): 6.31 nM
B2: FS20-22-49AA/FS30-10-12 (bispecific antibody, human IgG1, kappa, L234A L235A, V domains shown)
VH: B1 VH with N101T
VL: B1 VL
notes: M97 (Kabat) to T against FS30-10; also called FS30-10-12 in mAb^2 format

EC50 (nM), mIL-2 release, DO11.10-cCD137 T cell assay, crosslinked (mean of n = 2) [1]: 3.7 nM
Emax (mIL-2 pg/ml), DO11.10-cCD137 T cell assay, crosslinked [1]: 50100 pg/mL
% CD137 ligand blocking activity (hCD137-mFc-Avi [2]): 76%
DO11.10-hCD137 T cell activation assay EC50 (nM), crosslinked [3]: 3.7 nM
fold higher binding affinity than G1/MOR7480.1 (hCD137-mFc-Avi [4]): ~3 fold
Kd (cCD137-mFc-Avi): 0.15 nM
Kd (hCD137-mFc-Avi [5]): 0.17 nM
B3: FS20-22-49AA/FS30-10-16 (bispecific antibody, human IgG1, kappa, L234A L235A, V domains shown)
VH: B1 VH with N101L
VL: B1 VL
notes: M97 (Kabat) to L against FS30-10; also called FS30-10-16 in mAb^2 format

EC50 (nM), mIL-2 release, DO11.10-cCD137 T cell assay, crosslinked (mean of n = 2) [1]: 7.5 nM
Emax (mIL-2 pg/ml), DO11.10-cCD137 T cell assay, crosslinked [1]: 45700 pg/mL
% CD137 ligand blocking activity (hCD137-mFc-Avi [2]): 105%
Kd (cCD137-mFc-Avi): 3 nM
Kd (hCD137-mFc-Avi [5]): 3.45 nM
B4: FS20-22-49AA/FS30-5-37 (bispecific antibody, human IgG1, kappa, L234A L235A, V domains shown)
VH: EVQLLESGGGLVQPGGSLRLNCAASGFTFSSYAMSWVRQAPGKGLEWVSAISGSGGSTYYADSVKGRFTISRDNSKNTLYLQMNSLRAEDTAVYYCARSYDKYWGSSIYSGLDYWGQGTLVTVSS
VL: EIVLTQSPGTLSLSPGERATLSCRASQSVSSSYLAWYQQKPGQAPRLLIYGASSRATGIPDRFSGSGSGTDFTLTISRLEPEDFAVYYCQQYYSYYPVTFGQGTKVEIKR
notes: M100D to I and M100H to L against FS30-5; also called FS30-5-37 in mAb^2 format

EC50 (nM), mIL-2 release, DO11.10-cCD137 T cell assay, crosslinked (mean of n = 2) [1]: 6.6 nM
Emax (mIL-2 pg/ml), DO11.10-cCD137 T cell assay, crosslinked [1]: 69700 pg/mL
DO11.10-hCD137 T cell activation assay EC50 (nM), crosslinked [3]: 6.3 nM
Kd (cCD137-mFc-Avi): 0.67 nM
Kd (hCD137-mFc-Avi [5]): 0.6 nM
B5: FS20-22-49AA/FS30-35-14 (bispecific antibody, human IgG1, kappa, L234A L235A, V domains shown)
VH: EVQLLESGGGLVQPGGSLRLSCAASGFTFSAYNIHWVRQAPGKGLEWVSDISPYGGATNYADSVKGRFTISRDNSKNTLYLQMNSLRAEDTAVYYCARNLYELSAYSYGADYWGQGTLVTVSS
VL: B4 VL with S94Y, Y95S, Y96S, V98I
notes: M100F (Kabat) to A against FS30-35; also called FS30-35-14 in mAb^2 format
